# Experimental data reported in the supplement of paper PMC7125110.
# ± gives the standard error. Variants at the floor of the assay were thinned out.
# B1: glmS ribozyme (parent)
# chain: AUAAAAGCGCCAGAACUACAGAAAUGUAGUUGACGAGGAGGAGGUUUAUCGAAUUUUCGGCGGAUGCCUCCAAA
# How the values were obtained:
# Conditions in all cases: with glucosamine-6-phosphate
# glucosamine-6-phosphate [1] = variants of: B1; assay: self-cleavage kobs at 640 uM GlcN6P; higher = faster cleavage; RNA array
# Summary of the method: (§1)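 Glucosamine-6-phosphate in HEPES/KCl/Mg(OAc)2 buffer, at 40 μM to 10 mM, was flowed over barcoded ribozyme variants transcribed in situ by E. coli RNA polymerase on sequenced MiSeq chips. Tracking was through a hybridised Cy3 probe at 37 °C. kobs, kcat and KM came from exponential decay fits and weighted Michaelis–Menten fits of normalised per-tile medians.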
# glucosamine-6-phosphate [2] = variants of: B1; assay: self-cleavage kobs at 2500 uM GlcN6P; higher = faster cleavage; RNA array
# Summary of the method: as §1
# glucosamine-6-phosphate [3] = variants of: B1; assay: self-cleavage kobs at 10000 uM GlcN6P; higher = faster cleavage; RNA array
# Summary of the method: as §1
Variant,self-cleavage kobs at 640 uM GlcN6P (glucosamine-6-phosphate [1]) [s⁻¹],self-cleavage kobs at 2500 uM GlcN6P (glucosamine-6-phosphate [2]) [s⁻¹],self-cleavage kobs at 10000 uM GlcN6P (glucosamine-6-phosphate [3]) [s⁻¹]
G38A U54G C71U,< 1e-05,,
G32U G59A A64U C67U,< 1e-05,< 1e-05,
A36G A39C U47G,< 1e-05,< 1e-05,< 1e-05
C34U U69G C71U,0.000948 ± 0.00043,6.74e-05 ± 3.3e-05,
A36C G41A C50G C58G,< 1e-05,,
U31A A39C C50G C71A,< 1e-05,< 1e-05,< 1e-05
G35U A36G C61A,< 1e-05,,
G35A U46C U65A,< 1e-05,,< 1e-05
A36U A53G C58U C67G C70A,0.000184 ± 4.8e-05,0.00115 ± 0.00026,
G35U U45G C61A,< 1e-05,< 1e-05,
A36U G43A,< 1e-05,< 1e-05,< 1e-05
C34U C68U C70U,< 1e-05,,
U31C G41A A48U C67G,< 1e-05,< 1e-05,
G35A C58A,< 1e-05,< 1e-05,
A36C G41U A64C,< 1e-05,< 1e-05,
A33C G59A C67U,< 1e-05,,
U30A C70G C71U,5.91e-05 ± 2.5e-05,8.51e-05 ± 2.9e-05,
G35A G51A C58U,< 1e-05,,
G37A U54G U69A,0.000103 ± 2.5e-05,5.96e-05 ± 2.2e-05,
U30A U69G C71A,0.00266 ± 0.00078,,
U31A A53G U65A C70A,6.1e-05 ± 2.4e-05,,
U30A A42C C71U,< 1e-05,,

Variant,self-cleavage kobs at 640 uM GlcN6P (glucosamine-6-phosphate [1]) [s⁻¹],self-cleavage kobs at 2500 uM GlcN6P (glucosamine-6-phosphate [2]) [s⁻¹],self-cleavage kobs at 10000 uM GlcN6P (glucosamine-6-phosphate [3]) [s⁻¹]
C34A U54A A64C,< 1e-05,< 1e-05,
G35U G41A A64G,< 1e-05,< 1e-05,
G37C A39G U45A U49A,< 1e-05,< 1e-05,
C34G U57A,< 1e-05,,< 1e-05
A33U A42G C68A,< 1e-05,< 1e-05,
G38A G62U G66C,< 1e-05,,
G38A A48C,< 1e-05,< 1e-05,< 1e-05
U31C G37A A53G,5.04e-05 ± 8.3e-06,0.000126 ± 2e-05,
U30C G32C C58A,3.93e-05 ± 1.5e-05,,
U31G G38A U57C C58U G66C,< 1e-05,,
A33U C34G U49A A53U,< 1e-05,,< 1e-05
G38U G43U U65C C68G C71G,< 1e-05,,
A39C G51C U56C C70A,< 1e-05,,
G35C A36C A42C G43C G51A,< 1e-05,< 1e-05,
U30G U31A U65A,0.000791 ± 0.00013,0.000896 ± 0.00022,
G38A G40U U65C,< 1e-05,,
A36G A39C A52U U57A,< 1e-05,,
C34G G37A U45A C58A,< 1e-05,,
G35A G37A U46A G51C G59U,< 1e-05,< 1e-05,
G38U G43U U57C C70U,< 1e-05,,
U31C A33U A36U G38C C58U U65G G66C C71U,< 1e-05,< 1e-05,
A33G G51A U55C C68A,< 1e-05,,

Variant,self-cleavage kobs at 640 uM GlcN6P (glucosamine-6-phosphate [1]) [s⁻¹],self-cleavage kobs at 2500 uM GlcN6P (glucosamine-6-phosphate [2]) [s⁻¹],self-cleavage kobs at 10000 uM GlcN6P (glucosamine-6-phosphate [3]) [s⁻¹]
A39C G40U G44A U55C U65G,< 1e-05,< 1e-05,
C34G A39U U49G,< 1e-05,,
U30C C67A C70G,6.32e-05 ± 1.4e-05,,
G37U U65A G66C,< 1e-05,,
G37U G38C U49G U56G,< 1e-05,,
G32C G35U U46A C68G,< 1e-05,,
G35A G40U C68U,< 1e-05,,
U31G G35U A36G U47A A64G C68U C71G,9.41e-05 ± 3.3e-05,,
G38A G40U G43A A52C,< 1e-05,,
A36C G37A A64G,< 1e-05,,
U31A C58U U69G,0.000109 ± 4.2e-05,7.72e-05 ± 2.2e-05,
G37A U49A G66A,< 1e-05,,
G37A C61A C70U,< 1e-05,< 1e-05,< 1e-05
A33C A53G,3.89e-05 ± 1.4e-05,7.39e-05 ± 1.3e-05,0.000235 ± 3.8e-05
U30C U47G,6.62e-05 ± 2.2e-05,3.09e-05 ± 1.1e-05,2.83e-05 ± 6e-06
G32A A36C U55G C67G C68G,0.000126 ± 3.4e-05,4.75e-05 ± 1.2e-05,
G37C C68U U69G,6e-05 ± 2e-05,,
A36G G37C U46C,< 1e-05,< 1e-05,
U31C G51C C71A,< 1e-05,,
A36G U47G,< 1e-05,,< 1e-05
A33C G66C,< 1e-05,,
